Square brackets hold non-standard residues; d marks the D form. Ends that are not written are not given here. fluorescein = fluorescein (N-terminal label); NMeI = CC[C@H](C)[C@H](NC)C(=O)O; Sar = CNCC(=O)O
Assays:
[1] = test system: Aβ and α-synuclein; conditions: ref [41]; cited from earlier work
Text: In agreement with their intrinsic aggregation propensities, the agg ...

[2] = test system: IAPP; conditions: ref [38]; cited from earlier work
[3] = Side chain 1H-15N HSQC of histidines of Aβ42; assay type: physicochemical; conditions: 30 µM Aβ42, no IAPP-GI, pH 7.3, 278 K
Experimental: ^1H-^15N HSQC spectra of the side chains of histidines (H6, H13 and H14) were acquired on a Bruker AMX 600 MHz spectrometer equipped with a triple-resonance cryogenic probe. […] A 30 µM sample of Aβ42 was also measured. The INEPT transfer delay was selected as 27.8 ms, to obtain the coherence transfer from the ε1H and δ2H protons to the ε2N and δ1N through the ^2J coupling constant (Figure 1B). The carrier and SWH values were 5.00 ppm and 6010 Hz in the direct dimension, and 185.31 ppm and 9728 Hz in the indirect dimension. The experimental matrix was 2K*256 complex data points, which after apodization through a 90°-shifted squared sine bell function in both dimensions was transformed to a final matrix of 8K*512 data points.

[4] = CLEANEX-PM-FHSQC water-amide proton exchange; assay type: physicochemical; conditions: 30 µM Aβ42, no IAPP-GI, pH 7.3, 278 K
Experimental: In a CLEANEX-PM-FHSQC experiment, exposed parts of the backbone gain high signal intensity already at short mixing times due to efficient exchange with water, while for more protected groups the signal intensity only rises at longer mixing times.
To this end, CLEANEX-PM-FHSQC experiments were recorded on a Bruker Avance 600 MHz spectrometer equipped with a triple-resonance room temperature probe. […] The intensity of peaks as a function of mixing time was fitted to the following equation: [drawing 1] (1) where V0 is the intensity of the peak in a control FHSQC experiment, k is the normalized rate constant related to the forward exchange rate constant between water and NH protons, and R1A and R1B are apparent longitudinal relaxation rates for protein and water [32].

[5] = target: Aβ40 (Homo sapiens, UniProt P05067); conditions: Fluos-IAPP-GI (1 nM) titrated with low nano- to submicromolar Aβ40; fluorescence; ref [18]; read-out: app. Kd, IAPP-GI-Aβ40 interaction; cited from earlier work
[6] = cited from earlier work
Text: Therefore, we needed to find an experimental condition under which these two peptides predominantly populate a monomeric state.

[7] = target: IAPP-GI (Fluos-IAPP-GI) (Homo sapiens) (UniProt P10997); test: fluorescence titration; conditions: cited from earlier work
IAPP-GI (Fluos-IAPP-GI) (Homo sapiens), sequence (P10997 32-73): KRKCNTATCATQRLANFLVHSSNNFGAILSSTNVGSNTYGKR

Amyloid beta 40 1-40, sequence (P05067 1-40): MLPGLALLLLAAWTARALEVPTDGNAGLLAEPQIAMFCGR
Aβ40, sequence (P05067 672-711 limits assumed): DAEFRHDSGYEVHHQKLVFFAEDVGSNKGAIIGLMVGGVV

O=C(O[C@@H]1Cc2c(O)cc(O)cc2O[C@@H]1c1cc(O)c(O)c(O)c1)c1cc(O)c(O)c(O)c1 [(-)-epigallocatechin gallate]
redirection of Aβ and α-synuclein into off-pathway oligomers [1]: redirection of Aβ and α-synuclein into off-pathway oligomers

N-terminal part (residues 1–28): N-terminal part of Aβ (residues 1–28)
affinity of N-terminal part of Aβ for IAPP [2]: low µM affinity

Aβ42: amyloid-beta peptide; 15N-uniformly labeled Aβ1-42 purchased from rPeptide
histidine side-chain peak pattern of pure Aβ42 [3]: very similar to that of Aβ40 with IAPP-GI
water-amide proton exchange rates of Aβ42 compared with Aβ40 [4]: the exchange rates are reduced in regions (Figure 9) that are also affected upon addition of IAPP-GI to Aβ40

Fluos-IAPP-GI: N-terminal fluorescein labeled IAPP-GI (fluorescein-KCNTATCATQRLANFLVHSSNNF[Sar]A[NMeI]LSSTNVGSNTY; ends and bridges not checked)
Kd [5]: 50 nM

human IAPP: Islet Amyloid Polypeptide, hydrophobic strongly amyloidogenic peptide produced in the pancreatic islet cells (KCNTATCATQRLANFLVHSSNNFGAILSSTNVGSNTY; not fully specified (C-terminus, bridges); cysteine pairing not given here; UniProt P10997 34-70, looked up)
assembly state of human IAPP ([6]; neutral pH, 4°C, concentration as high as 255 µM (1 mg/mL), analytical ultracentrifugation and diffusion NMR, ref [24], [25]): kinetically stable state consisting of monomers and high molecular weight oligomers
self-association of human IAPP ([6]; temperatures above 20°C, ref [24]-[27]): rapidly drives monomeric IAPP molecules toward oligo- and multimerization

Amyloid beta 40 1-40 (from UniProt P05067)
Kd [7]: 41.2 nM
